# Experiment: soluble on expression in E. coli; label from the status in PepcDB or PDB records
row,Sequence,soluble on expression in E. coli
1,MGSDKIHHHHHHMSLTITKLQKKIADQAVLNNITFSLSLGQVVGLVGPNGIGKTTIFRTVTHQYRADGGTIELDEQDLTDHPEQRENLFYLDNQHLFFRKYRLDKIAGDYQLLYATFDQARFMALIEKFGLQGSQRFQSLSKGYQALVMVALALASGAPYVFLDEPFDGLDLLIRERIVNLVVDAVADGKRTFLIASHNLVELDGLSDRVLFVKAGRISQDLTLEDVRQQAIKLQLVFKTKAIPDVIR,not soluble
2,MATAKKITIHDVALAAGVSVSTVSLVLSGKGRISTATGERVNAAIEELGFVRNRQASALRGGQSGVIGLIVRDLSAPFYAELTAGLTEALEAQGRMVFLLHGGKDGEQLAQRFSLLLNQGVDGVVIAGAAGSSDDLRRMAEEKAIPVIFASRASYLDDVDTVRPDNMQAAQLLTEHLIRNGHQRIAWLGGQSSSLTRAERVGGYCATLLKFGLPFHSDWVLECTSSQKQAAEAITALLRHNPTISAVVCYNETIAMGAWFGLLKAGRQSGESGVDRYFEQQVSLAAFTDATPTTLDDIPVTWASTPARELGITLADRMMQKITHEETHSRNLIIPARLIAAK,not soluble
3,MAKHHPLTDWLPTSKKEMEAKGWDEADVILFSGDAYVDHPSFGAAVVGRILEAEGLRVAIVPQPNWRDDLRDFRKLGRPRLFFGVSAGAMDSMVNKYTANRRLRSEDAYTPDRRSDMRPDYPTIVYTRILKELFPDVPVIVGGIEASLRRLTHYDYWQDKLLPGILYQSGADLLIYGMGELPLHEIAQRLIAGEPFDSLKSIRQIAYLVPKGKTPVPCENDRHLFSHEECLSDKRKQAQNFREIEIQSNRYEADRILQAVGDSTIVVNPPFPPMSTAQIDQSFDLPYTRLPHPRYKGKIISAYEMIKHSVNVHRGCFGGCAFCTISAHQGKFIASRSEASVLREVKEITEMEDFKGYLSDVGGPSANMYKMQGYDLSICKRCKKPSCIHPNVCPNLNADHRPLLDLLRRIDKNPKIKKSFIGSGVRMDLLLHNYKDKVLKKAADEYTEDLIVKHVSGRLKVAPEHSSDRVLNLMRKPPFRQFAEFTKRFQRINEAHGLRQQLIPYFISSHPGCTEEDMAELAILTKKLDFKLEQIQDFTPTPMTLATEMYYTGYHPYTLQPVYTAIKKEEKMRQHMFFFWYKREEADKIRRELHRIGRPDLIAKLFDRTTSSRNDRHTPPSTQPRKSKSKSRHS,not soluble
4,MFQPVTQKRLTNVSVVRMRKGGKRFEIACYPNMVMAYREGHVRDLDEVIQVEDVFENVSKGKLAANADLERCFGTRDRHAVLLQILLHGDLQVSDRERQYQSTRKLHEIASVVAAKTISRETKKPLPVGLIEKALREIHFAVQPNRPAKAQALEVIPLLRAQSGLDLERARLRLRIHVPSQRDAKAVKARLEPLQQGETDGTHSSSRSDSVRMKDGSAAVESESEEWLPGGALLWTVQADPGAFREIEEIVQRETNQQGIVEVASLRVLDDEDESILS,not soluble
5,HPHVENFTIIGSGFQAETQLEGMITVSHPQSIRVYSRNYDHAKDFASRMSKQFGVDIRPVDNAEAALSDADTVSSITNSTSPVILRKYLGDEYHVNLAGSNYMNRREAEYEVLHDADLVVTEHYDQSMVESAEISEYVKFGGKPVELREIAGRYGEFSGLRRTVFKSMGIGLEDIATAYRVLRNLGIA,not soluble
6,MGSDKIHHHHHHMAAIGSYNITLLNRESIKENAAYPIADNVEVIALSGSLFEFYKKLKKQISSNNYDVVVVHNMGKLSLLCAFVPNIKKLVVLEHVSFISRPKKIQILSKFLYRNIDQVVTLTQNDKEQFDKFHSNVIVIPNFSPFSIASQPQNNGKQIVTIGRLTDQKNYIHLLQAWKKIYQSIPDWQLNIYGEGEQEEMLQDYIKQQSLKNVSLKGSTSNVKEVYEQSSFFVMSSKYEGLPMVLIEAQSFGLPIVSYNCPYGPSDVIRDSKNGFLVEDQNVDELAAAVLKVALSPQLLEQFSQSSLLNAKKYQPEQILKIWIEKVLEG,not soluble
7,MGSDKIHHHHHHMLKSCPMNPRLDALHPYPFEKLRALLADAGKPTHDLPPINLSIGEPKHAAPACVGQAIAANLAGLSVYPSTKGEPALRQAISQWLSRRYSIPAPDPESEVLPVLGSREALFAFAQTVIDPSAGALVVCPNPFYQIYEGAALLAGATPYYVNADPARDFGCDWARVPDEVWRRTQLVFVCSPGNPAGNVMSLEEWRTLFELSDRHGFVIAADECYSEIYLDEDNPPLGSLQAARRLGRDRYTNLVAFSSLSKRSNVPGMRSGFVAGDAALLARFLLYRTYHGSAMSPVVSAASIAAWSDETHVQENRRQYRAKFEAVLPILQNVLDVRAPQASFYLWAGTPGSDTAFARELYGRTGVTVLPGSLLAREAHNANPGQGRIRIALVAPLDQCVQAAERIAHFARTSI,not soluble
8,VEPSEENSKDCVVCQNGTVNWVLLPCRHTCLCDGCVKYFQQCPMCRQFVQESFAL,soluble
9,MSLSSEHIQNKLALLPDQPGCYLMKDRQGTIIYVGKAKILKNRVRSYFSGTHDSKTQRLVQEIVDFEYIVTSSNVEALLLEINLIKKHDPRFNIRLKDDKTYPFIKITNERHPRLIITRQVKKDKGKYFGPYPNVYAANEVKRILDRLYPLRKCSTLPNKVCLYYHLGQCLAPCVFDVEASKYKEMQDEIVTFLNGGYKTVKNDLMKKMQEAAENMEFEKAGEFRDQINAIETTMEKQKMTMNDFVDRDVFGYAIDKGWMCVQVFFIRQGKLIERDVSQFPFYNDADEDFLTFIGQFYQKANHIPPKEIYLPDDVDSEAVQAVVPDTKIIVPQRGNKKDLVKLAYKNAKIALNEKFMLLERNEERTVGAVERLGEAMGIPTPSRVEAFDNSNIHGTDPVSAMVTFLDGKPSKNDYRKYKIKTVEGPDDYATMREVIRRRYWRVLKEELPMPDLILIDGGKGQIDSAKDVLTNELGLDIPVAGLAKDDKHRTSQLLFGDPLEIVPLERNSQEFYLLQRMQDEVHRFAITFHRQLRSKTGFQSILDGIPGVGPGRKKKLLKHFGSMKKLKEASVEEIKEAGVPLNVAEEVHKHITAFNEGHHHHHH,soluble
10,MSLIRANAGDWKKYTFELTPDKTDENARLAIYLEEKGRIQVDMVTLMNGADRQFCGLPLRNDIGQAMVDQGLRFLRYGGTMVNAPEYRFKKMIGDRAERPPYKGHWYTYSTNGFGIEDFLHFCEKAGFMPAYAVNVEESAQDMADMIEYLNGSVDTKWGKKRAENGHPEPYGLKYLEIGNEEVIWGDIEADYQHYIDRFNDIYEAVHAKDPEVQFIHSAWWRPESPNMEKVFKALDGKAAYWDYHPWTDDLGSHVNIDRELTDMKAKFLKWNPKTSMRCAIFEENGNLHNVQRAIVHATVQNVVRRHGDFILTTCAANALQPYLQNDNGWDQGQIFFTSGQVWGMPTFYAQQMSSAHHHPLRLWSETVGELDMTATTNEARDEVILHVVNTSSEVRETQVSLSGFIPKGNMEIYTLSGELNDENLPDTPTWILPKATWKQAPGSDFTYSFPGYSYTIVVLKEGHHHHHH,not soluble
11,MFSLRDAKCGQTVKVVKLHGTGALKRRIMDMGITRGCEIYIRKVAPLGDPIQINVRGYELSLRKSAAEMIEVE,not soluble
12,MGSDKIHHHHHHMSTSPLYYAKKTQELCALSDVYITLNRMLSSDGCSLEQLADAIAYEPAIAASILKIANSAMFSMPRKIDSLSKALTILGIKEVKKLVNAYGITAAFSNLDPNVVDMDKFWEISVDCALICQYFAKNKQIPNTDNIFLSGLFHNLGMLAMISSEPAKVRYCEGYDRDETPWFRQNQVFGFTFADCTTELLKLWDLPDSIIQPIAEFNGAEHEPLPDNSKLLYMASRLAVINADPGLYAKEALIDKAILDDLGIESSDMSQSLEYCNEQAMELLATFPIQGRKSSE,not soluble
13,MSLRDKQKIKTKLIPEKDEGEGKYRIGLYIRDSAAGIGTMTFYEPKTKKYGALGHVISDMDTKKPIVVENGEIVKSTVTSIEKGTGGNPGEKLARFSSERKTIGDINRNSPFGIFGTLHQPIQNNISDQALPVAFSTEVKKGPAEILTVIDDDKVEKFDIEIVSTTPQKFPATKGMVLKITDPRLLKETGGIVQGMSGSPIIQNGKVIGAVTHVFVNDPTSGYGVHIEWMLSEAGIDIYGKEKASEGHHHHHH,soluble

# — the DeepSol protein solubility set
